The text below walks through data of US20240343803A1 (SHANDONG SIMCERE BIOPHARMACEUTICAL, published 2024).

Experiment [1] has as its target T1, full-length cynomolgus monkey TIGIT on CHO-K1 cells (CHO-K1 cynomolgus monkey TIGIT) (cynomolgus monkey).
T1 construct: NCBI XP_015300911.1; also called cynomolgus monkey TIGIT cells
As to the kind of experiment: FACS. How it is done:
(§1) The collected cells were washed once with PBS (Hyclone, CAT #SH30256), resuspended to 2×10⁵/50 μL with 1% BSA-PBS. The antibodies were diluted to 80 nM with 1% BSA-PBS (diluted by 3-fold serial dilution for 12 concentration points). The 50 μL cells were then mixed with 50 μL diluted antibodies, and then incubated at 4° C. for 60 minutes. […] After washing twice with PBS, the cell samples were resuspended with 1% BSA-PBS, 100 μL/well and then analyzed by flow cytometry (BD, Canto II). […] [0298] (c) The effect of anti-TIGIT chimeric antibodies blocking the interaction between Bio-CD155-His and CHO-K1 human TIGIT high expression cell strains detected by FACS

Experiment [2] has as its target T2, human TIGIT ECD-mFc (fusion protein of extracellular domain of human TIGIT and mouse IgG2a Fc fragment) (human).
T2 chain: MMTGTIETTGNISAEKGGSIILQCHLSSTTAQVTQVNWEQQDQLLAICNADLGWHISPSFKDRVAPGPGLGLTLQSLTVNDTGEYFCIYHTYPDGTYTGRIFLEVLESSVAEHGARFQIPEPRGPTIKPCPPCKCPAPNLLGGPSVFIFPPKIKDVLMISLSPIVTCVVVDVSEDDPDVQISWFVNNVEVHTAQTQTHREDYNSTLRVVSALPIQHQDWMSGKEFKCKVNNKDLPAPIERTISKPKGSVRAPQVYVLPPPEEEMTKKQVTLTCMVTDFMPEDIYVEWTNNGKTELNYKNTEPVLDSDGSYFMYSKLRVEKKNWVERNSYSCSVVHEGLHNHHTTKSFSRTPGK
The experiment can be described thus: ELISA. As for the experimental part: (§2) After discarding the coating solution, the plate was added with 5% skim milk powder (Sangon Biotech, CAT #A600669-0250)-PBS, 250 μL/well, and incubated at 37° C. for 2-4 hours. […] The enzyme-labeled plate was then washed with 0.05% Tween 20-PBS for 3 times on the Microplate Washer, added with tested antibodies diluted to 13 nM with 1% BSA (diluted by 3-fold serial dilution for 12 concentration points), 50 μL/well, and incubated at 37° C. for 1.5-2 hours. The plate was washed with 0.05% Tween 20-PBS for 3 times on the Microplate Washer, then added with HRP enzyme-labeled antibodies (Merck, CAT #AP113P) diluted with 1% BSA (Sangon Biotech, CAT #A500023-0100)-PBS at a dilution ratio of 1:5000, 50 μL/well, and incubated at 37° C. for 1 hour. After washing 3 times with 0.05% Tween 20-PBS on the Microplate Washer, the plate was added with TMB chromogenic solution (KPL, CAT #52-00-03), 50 μL/well, and incubated at room temperature for 7-10 minutes. 1M HCL, 50 μL/well, was then added into the plate to terminate the reaction, and the OD450 nm was read by a microplate reader (Biotek, Powerwave HT). […] (b) The binding activity of anti-TIGIT chimeric antibodies to CHO-K1 human TIGIT (cells with high, medium and low expression levels) and CHO-KI cynomolgus monkey TIGIT detected by FACS.

Experiment [3] addresses T3, cynomolgus monkey TIGIT ECD-mFc (extracellular domain of cynomolgus monkey TIGIT and mouse IgG2a Fc fragment) (cynomolgus monkey).
T3 construct: entry includes the signal peptide, limits not readable here
As to the kind of experiment: ELISA. As for the experimental part: as §2

In experiment [4] the target is T4, human TIGIT ECD-his (fusion protein of extracellular domain of human TIGIT and His-tag) (human).
T4 construct: entry includes the signal peptide, limits not readable here
T4 chain: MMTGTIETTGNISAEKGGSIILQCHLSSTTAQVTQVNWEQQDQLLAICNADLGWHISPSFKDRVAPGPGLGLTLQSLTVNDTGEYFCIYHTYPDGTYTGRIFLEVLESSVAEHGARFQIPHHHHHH
The experiment can be described thus: BIAcore kinetics.

Experiment [5] concerns the target T5, full-length human TIGIT on CHO-K1 cells (CHO-K1 human TIGIT) (human, UniProt Q495A1 22-244).
T5 construct: NCBI XP_024309156.1; entry includes the signal peptide; also called high expression strain 1D2; medium expression strain 2D10
T5 sequence: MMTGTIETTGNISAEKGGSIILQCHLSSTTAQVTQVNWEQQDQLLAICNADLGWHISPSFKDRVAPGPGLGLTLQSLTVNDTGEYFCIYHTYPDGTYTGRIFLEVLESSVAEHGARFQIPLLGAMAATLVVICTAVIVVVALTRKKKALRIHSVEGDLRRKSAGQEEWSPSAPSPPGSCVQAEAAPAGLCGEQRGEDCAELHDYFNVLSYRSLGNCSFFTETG
The experiment can be described thus: FACS, low expression strain. As for the experimental part:
as §1

Experiment [6] deals with T5, full-length human TIGIT on CHO-K1 cells …. The experiment can be described thus: FACS, high expression strain. How it is done: as §1
For experiment [7] the target is unchanged. The experiment can be described thus: FACS, medium expression strain. How it is done:
as §1

The target of experiment [8] is T2, human TIGIT ECD-mFc (fusion protein of …). The experiment can be described thus: FACS, competition: hTIGIT ECD-mFc to CHO-K1 CD155. How it is done: The collected CHO-K1 CD155 cells were washed once with PBS (Hyclone, CAT #SH30256) and resuspended to 2×10⁵/40 μL with 1% BSA-PBS. The tested antibodies were diluted to 600 nM with 1% BSA-PBS (diluted by 2.5-fold serial dilution for 12 concentration points). The TIGIT ECD-mFc was diluted with 1% BSA-PBS to 6 μg/mL. The 40 μL cells were then mixed with 40 μL diluted antibodies and 40 μL diluted TIGIT ECD-mFc, and then incubated at 4° C. for 60 minutes. […] The cell samples were washed twice with PBS, resuspended to 100 μL/well with 1% BSA-PBS and then analyzed by flow cytometry (BD, Canto II).

Experiment [9] deals with T5, full-length human TIGIT on CHO-K1 cells …. The experiment can be described thus: FACS, competition: Bio-CD155-His to CHO-K1 human TIGIT. As for the experimental part:
The collected cells were washed once with PBS (Hyclone, CAT #SH30256), resuspended to 2×10⁵/40 μL with 1% BSA-PBS. The antibodies were diluted to 210 nM with 1% BSA-PBS (diluted by 3-fold serial dilution for 12 concentration points). […] The 40 μL cells were then mixed with 40 μL diluted antibodies and 40 μL diluted Bio-CD155-His, and then incubated at 4° C. for 60 minutes. The cells were washed twice with PBS, resuspended with APC labeled streptavidin (dilution ratio 1:1700, Biolegend, 405243), 100 μL/well, and incubated at 4° C. for 40 minutes. The cell samples were washed twice with PBS, resuspended with 1% BSA-PBS, 100 μL/well and then analyzed by flow cytometry (BD, Canto II). […] [0300] (d) The effect of anti-TIGIT chimeric antibodies blocking the interaction between TIGIT ECD-mFc and CHO-K1 CD155 detected by FACS

T1 sequence (chain, as listed by the source limits assumed): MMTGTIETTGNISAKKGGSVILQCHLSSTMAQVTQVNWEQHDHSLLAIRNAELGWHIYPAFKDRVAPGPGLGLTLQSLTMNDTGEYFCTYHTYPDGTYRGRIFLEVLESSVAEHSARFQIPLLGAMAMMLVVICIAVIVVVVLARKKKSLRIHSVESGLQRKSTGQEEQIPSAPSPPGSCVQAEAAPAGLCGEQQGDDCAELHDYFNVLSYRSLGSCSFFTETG
T3 sequence (chain, as listed by the source limits assumed): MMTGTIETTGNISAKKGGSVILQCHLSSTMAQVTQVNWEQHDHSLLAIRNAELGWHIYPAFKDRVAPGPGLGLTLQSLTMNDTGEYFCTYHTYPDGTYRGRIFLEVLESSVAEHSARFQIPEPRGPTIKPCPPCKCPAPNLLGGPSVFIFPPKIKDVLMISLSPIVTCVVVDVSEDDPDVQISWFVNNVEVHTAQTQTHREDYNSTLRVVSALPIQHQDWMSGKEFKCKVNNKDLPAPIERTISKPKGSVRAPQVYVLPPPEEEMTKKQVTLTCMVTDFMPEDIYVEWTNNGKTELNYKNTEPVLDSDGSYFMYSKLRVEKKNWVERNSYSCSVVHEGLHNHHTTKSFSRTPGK

B1: TIGIT-CHI-070 (antibody, V domains shown)
VH: QVQLQQPGTELVKPGASVKLSCRASGYTFTNYYMHWVKQRPGRGLEWIGRIDPDSGGSKYNEKFKSKATLTVDKLSSTAYMQLSSLTSEDSAVYYCAREGHYGFYSDYWGQGTTLTVSS
VL: DIQMTQSPASLSASVGETVTITCRVSENIYSYLAWYQQKQGKSPQLLVYNAKTLAEGVPSRFSGSGSGTQFSLKINSLQPEDFGNYYCQHHYGNPLTFGAGTKLDLK
notes: human-mouse chimeric antibody
With B1, the EC50 in experiment [1] was 35.9 pM; in [2], 14.5 pM; in [3] it was 16.3 pM; in [5], 352 pM; in [6], 517 pM; in experiment [7], 394 pM. In addition, in experiment [4], the dissociation constant (Kd) is 300 pM. Besides, the koff in experiment [4] worked out at 0.000456 s⁻¹. This molecule had a kon in [4] of 1.52e+06 M⁻¹ s⁻¹. The IC50 in [8] worked out at 582 pM; in experiment [9], 384 pM.

B2: TIGIT-CHI-002 (antibody, V domains shown)
VH: EVQLQESGPGLAKPSQTLSLACSVTGYSITSDSWNWIRKFPGNKLEYMGYISYSGNTYYNPSLKSRISITRDTSKNQFYLQLNSVTTEDTATYYCARLDFSNYGGAVDYWGQGTSVTVSS
VL: DIVMTQSHTFMSTSVGDRVSITCKASQNVRTAVAWYQQKPGQSPKLMIYSASYRYTGVPDRFTGSGSGTDFTFTISSVQAEDLAVYYCQQYYTTPWTFGGGAKLEIQ
notes: human-mouse chimeric antibody
With B2, the EC50 in [1] was 29 pM; in experiment [2], 18.1 pM; in experiment [3] it was 16.5 pM; in [5] it was 218 pM; in experiment [6], 299 pM; in experiment [7] it was 290 pM. The same molecule returned a Kd in [4] of 69.7 pM. In [4], this molecule returned a koff of 0.000315 s⁻¹. In experiment [4], this molecule registered a kon of 4.53e+06 M⁻¹ s⁻¹. Moreover, the IC50 is 368 pM in [8] and 152 pM in experiment [9].

B3: TIGIT-CHI-006 (antibody, V domains shown)
VH: EVQLQESGPGLAKPSQTPSLTCSVTGYSMTSDYWNWIRKFPGNKLEYMGYISYSGRTYYNPSLKSRISITRDTSKNQFYLQLNSVTTEDTATYYCARGDYSNYGGAMYDWGQGTSVTVSS
VL: DIVMTQSHKFMSTSVGDRVSITCRASQGVSTTIAWYQQKPGQSPKLLIYSASYRYTGVPDRFTGSGSGTDFTFTISGVQAEDLAVYYCQQYYSSPFTFGGGTKLEIK
notes: human-mouse chimeric antibody
As to B3, the EC50 is 73.1 pM in experiment [1]; 16.7 pM in experiment [2]; 38.9 pM in experiment [3]; 329 pM in experiment [5]; 502 pM in experiment [6]; 481 pM in experiment [7]. Besides, in experiment [4], binding was put at a Kd of 132 pM. In [4], this molecule came in with a koff of 0.00017 s⁻¹. In experiment [4], the kon was 1.29e+06 M⁻¹ s⁻¹. For the same molecule, the IC50 in experiment [8] was found to be 572 pM; in experiment [9], 246 pM.

B4: TIGIT-CHI-005 (antibody, V domains shown)
VH: QVQLQQSGAELVRPGTSVKVSCKASGYAFTNYLIEWVKQRPGQGLEWIGVINPGSGGTNYKEKFKGKATLTADKSSSTAYMQLSSLTSEDSAVYFCARGEYFFFDYWGQGTTLTVSS
VL: DIVMTQSHKFMSTSVGDRVSITCKASQHVSNGVAWYQHKPGQSPKLLIYSASYRYTGVPDRFTGTGSGTDFTFTISSVQAEDLAVYYCQQHYNTPHTFGGGTKLEIK
notes: human-mouse chimeric antibody
In the case of B4, the EC50 in [1] was 26.4 pM; in experiment [2], 17.3 pM; in [3] it was 17 pM; in experiment [5] it was 229 pM; in [6], 342 pM; in experiment [7], 316 pM. In addition, the Kd in experiment [4] was 53.6 pM. In addition, in experiment [4], the koff was determined as 0.000192 s⁻¹. In [4], this molecule came in with a kon of 3.59e+06 M⁻¹ s⁻¹. Further, the figures for the IC50 in experiment [8] and in experiment [9] were 363 pM and 158 pM, respectively.
